Experimental data published in article PMC8448959 (ACS chemical biology, 2021).
Like-named read-outs stand apart in the source and are kept apart here. Square brackets hold non-standard residues; d marks the D form. Ends that are not written are not given here. * marks the point of attachment. Lys(Et,iPr) = CCN(CCCC[C@H](N)C(=O)O)C(C)C; 4‑piperidine cap = not defined here; cyclohexyl = C1CCC(*)CC1

T1: MPP8 chromodomain (residues 55-116), N-terminal His-tag (UniProt Q99549-1 55-116)
T1 sequence (looked up): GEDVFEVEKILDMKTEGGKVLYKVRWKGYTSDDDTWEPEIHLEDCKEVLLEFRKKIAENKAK

T2: CDYL2 chromodomain (residues 1-75), C-terminal His-tag (UniProt Q8N8U2 1-75)
T2 sequence (looked up): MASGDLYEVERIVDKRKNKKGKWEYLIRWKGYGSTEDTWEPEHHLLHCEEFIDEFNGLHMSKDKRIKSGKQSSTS

T3: CBX7 chromodomain (residues 8-62), C-terminal His-tag (UniProt O95931 8-62)
T3 sequence (looked up): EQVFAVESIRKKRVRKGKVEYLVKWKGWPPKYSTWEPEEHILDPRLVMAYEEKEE


Experiments:
Experiment in all cases: AlphaScreen or HTRF
[1] = target: T1, MPP8 chromodomain (residues 55-116), …
[2] = target: T2, CDYL2 chromodomain (residues 1-75), …
[3] = target: T3, CBX7 chromodomain (residues 8-62), …
[4] = target: T1, MPP8 chromodomain (residues 55-116), …; remark: listed apart in the source
[5] = target: T3, CBX7 chromodomain (residues 8-62), …; remark: listed apart in the source

IC50 [1]	IC50 [2]	IC50 [3]	IC50 [4]	IC50 [5]	Binder
400 nM	70 nM	> 30000 nM	–	–	{4‑piperidine cap}-FAFK(cyclohexyl)S-OMe (reading uncertain; also: Lys4: lysine mimetic with a cyclohexyl substituent) [UNC6217]
700 nM	200 nM	> 30000 nM	–	–	{4‑piperidine cap}-FAFKS-OMe (reading uncertain; also: lysine mimetic with a piperidine substituent) [UNC6127]
800 nM	200 nM	> 30000 nM	–	–	FAFKS (N-terminal 4-piperidine cap; lysine mimetic with increased steric bulk on the lysine amine; C-terminal methyl ester) [UNC6254]
450 nM	90 nM	> 30000 nM	–	–	FAFKS (N-terminal 4-piperidine cap; lysine mimetic with a methyl-cyclopentyl amine; C-terminal methyl ester) [UNC6216]
500 nM	100 nM	> 30000 nM	–	–	{4‑piperidine cap}-FAFKS-OMe (reading uncertain; also: Lys4: lysine mimetic with a tetrahydropyran substituent) [UNC6218]
–	–	–	900 nM	6000 nM	FAF[Lys(Et,iPr)]S-OMe (not fully specified (N-terminus); also: N-terminal cap R1 not given here) [UNC6263]
–	–	–	400 nM	7000 nM	FAF[Lys(Et,iPr)]S-OMe (not fully specified (N-terminus); also: N-terminal cap R1 not given here) [UNC6257]
1400 nM	700 nM	> 30000 nM	–	–	{4‑piperidine cap}-FAFKS-OMe (reading uncertain; also: Lys4: lysine mimetic with a pyrroline substituent) [UNC6262]
